For five molecules, IC50 results are on record in patent publication US20140087995A1 (published 2014).

Broadly, the IC50 is the concentration at which inhibition is half-maximal. A low value points to greater potency.

T1: human amylin receptor (human, UniProt P30988 25-474; O60896 24-148, limits assumed)
T1 construct: whole, on cells; Used as cell membranes prepared from the Amylin 3(a)/CRE-luc BHK cells (Assay V); also called hAmylin-R; hAmylinR
T1 sequence (looked up) 1: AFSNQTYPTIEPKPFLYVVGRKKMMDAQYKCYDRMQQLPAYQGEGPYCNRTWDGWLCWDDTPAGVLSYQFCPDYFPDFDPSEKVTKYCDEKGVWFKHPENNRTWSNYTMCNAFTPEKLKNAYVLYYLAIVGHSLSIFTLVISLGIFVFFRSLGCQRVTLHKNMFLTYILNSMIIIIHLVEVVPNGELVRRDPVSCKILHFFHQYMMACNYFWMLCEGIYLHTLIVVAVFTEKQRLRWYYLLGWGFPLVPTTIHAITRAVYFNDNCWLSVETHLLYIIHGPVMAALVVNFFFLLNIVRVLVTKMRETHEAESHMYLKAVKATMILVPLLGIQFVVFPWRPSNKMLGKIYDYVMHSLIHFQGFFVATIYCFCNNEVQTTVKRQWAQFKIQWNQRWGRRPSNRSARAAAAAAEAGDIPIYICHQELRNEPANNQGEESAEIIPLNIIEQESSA
T1 sequence (looked up) 2: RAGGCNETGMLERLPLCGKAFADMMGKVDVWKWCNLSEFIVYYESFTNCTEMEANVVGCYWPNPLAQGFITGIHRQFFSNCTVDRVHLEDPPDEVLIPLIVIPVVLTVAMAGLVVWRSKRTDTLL

B1: N^α1-[(4S)-4-carboxy-4-(19-carboxynonadecanoylamino)butanoyl]-[Glu14,Arg17,Pro21,Pro27,Arg35]-h-amylin (peptide)
peptide: {C20 diacid-γGlu}-KCNTATCATQRLAEFLRHSSPNFGAIPSSTNVGSRTY-NH2
modifications: disulfide 2-7
SMILES: CC[C@H](C)[C@H](NC(=O)[C@H](C)NC(=O)CNC(=O)[C@H](Cc1ccccc1)NC(=O)[C@H](CC(N)=O)NC(=O)[C@@H]1CCCN1C(=O)[C@H](CO)NC(=O)[C@H](CO)NC(=O)[C@H](Cc1c[nH]cn1)NC(=O)[C@H](CCCNC(=N)N)NC(=O)[C@H](CC(C)C)NC(=O)[C@H](Cc1ccccc1)NC(=O)[C@H](CCC(=O)O)NC(=O)[C@H](C)NC(=O)[C@H](CC(C)C)NC(=O)[C@H](CCCNC(=N)N)NC(=O)[C@H](CCC(N)=O)NC(=O)[C@@H](NC(=O)[C@H](C)NC(=O)[C@@H]1CSSC[C@H](NC(=O)[C@H](CCCCN)NC(=O)CC[C@H](NC(=O)CCCCCCCCCCCCCCCCCCC(=O)O)C(=O)O)C(=O)N[C@@H](CC(N)=O)C(=O)N[C@@H]([C@@H](C)O)C(=O)N[C@@H](C)C(=O)N[C@@H]([C@@H](C)O)C(=O)N1)[C@@H](C)O)C(=O)N1CCC[C@H]1C(=O)N[C@@H](CO)C(=O)N[C@@H](CO)C(=O)N[C@H](C(=O)N[C@@H](CC(N)=O)C(=O)N[C@H](C(=O)NCC(=O)N[C@@H](CO)C(=O)N[C@@H](CCCNC(=N)N)C(=O)N[C@H](C(=O)N[C@@H](Cc1ccc(O)cc1)C(N)=O)[C@@H](C)O)C(C)C)[C@@H](C)O
notes: also called compound 16
B2: N^ε1-[2-[2-[2-[[2-[2-[2-[[(4S)-4-carboxy-4-(19-carboxynonadecanoylamino)butanoyl]amino]ethoxy]ethoxy]acetyl]amino]ethoxy]ethoxy]acetyl]-[Arg17,Pro21,Pro27,Glu35 … (peptide)
peptide: K([AEEA-AEEA-γGlu-C20 diacid])CNTATCATQRLANFLRHSSPNFGAIPSSTNVGSETY-NH2
modifications: disulfide 2-7; N-terminus assumed
SMILES: CC[C@H](C)[C@H](NC(=O)[C@H](C)NC(=O)CNC(=O)[C@H](Cc1ccccc1)NC(=O)[C@H](CC(N)=O)NC(=O)[C@@H]1CCCN1C(=O)[C@H](CO)NC(=O)[C@H](CO)NC(=O)[C@H](Cc1c[nH]cn1)NC(=O)[C@H](CCCNC(=N)N)NC(=O)[C@H](CC(C)C)NC(=O)[C@H](Cc1ccccc1)NC(=O)[C@H](CC(N)=O)NC(=O)[C@H](C)NC(=O)[C@H](CC(C)C)NC(=O)[C@H](CCCNC(=N)N)NC(=O)[C@H](CCC(N)=O)NC(=O)[C@@H](NC(=O)[C@H](C)NC(=O)[C@@H]1CSSC[C@H](NC(=O)[C@@H](N)CCCCNC(=O)COCCOCCNC(=O)COCCOCCNC(=O)CC[C@H](NC(=O)CCCCCCCCCCCCCCCCCCC(=O)O)C(=O)O)C(=O)N[C@@H](CC(N)=O)C(=O)N[C@@H]([C@@H](C)O)C(=O)N[C@@H](C)C(=O)N[C@@H]([C@@H](C)O)C(=O)N1)[C@@H](C)O)C(=O)N1CCC[C@H]1C(=O)N[C@@H](CO)C(=O)N[C@@H](CO)C(=O)N[C@H](C(=O)N[C@@H](CC(N)=O)C(=O)N[C@H](C(=O)NCC(=O)N[C@@H](CO)C(=O)N[C@@H](CCC(=O)O)C(=O)N[C@H](C(=O)N[C@@H](Cc1ccc(O)cc1)C(N)=O)[C@@H](C)O)C(C)C)[C@@H](C)O
notes: also called compound 25
B3: N^α1-[(4S)-4-carboxy-4-(19-carboxynonadecanoylamino)butanoyl]-[Glu14,Arg17,Pro21,Pro27,Pro31]-h-amylin (peptide)
peptide: {C20 diacid-γGlu}-KCNTATCATQRLAEFLRHSSPNFGAIPSSTPVGSNTY-NH2
modifications: disulfide 2-7
SMILES: CC[C@H](C)[C@H](NC(=O)[C@H](C)NC(=O)CNC(=O)[C@H](Cc1ccccc1)NC(=O)[C@H](CC(N)=O)NC(=O)[C@@H]1CCCN1C(=O)[C@H](CO)NC(=O)[C@H](CO)NC(=O)[C@H](Cc1c[nH]cn1)NC(=O)[C@H](CCCNC(=N)N)NC(=O)[C@H](CC(C)C)NC(=O)[C@H](Cc1ccccc1)NC(=O)[C@H](CCC(=O)O)NC(=O)[C@H](C)NC(=O)[C@H](CC(C)C)NC(=O)[C@H](CCCNC(=N)N)NC(=O)[C@H](CCC(N)=O)NC(=O)[C@@H](NC(=O)[C@H](C)NC(=O)[C@@H]1CSSC[C@H](NC(=O)[C@H](CCCCN)NC(=O)CC[C@H](NC(=O)CCCCCCCCCCCCCCCCCCC(=O)O)C(=O)O)C(=O)N[C@@H](CC(N)=O)C(=O)N[C@@H]([C@@H](C)O)C(=O)N[C@@H](C)C(=O)N[C@@H]([C@@H](C)O)C(=O)N1)[C@@H](C)O)C(=O)N1CCC[C@H]1C(=O)N[C@@H](CO)C(=O)N[C@@H](CO)C(=O)N[C@H](C(=O)N1CCC[C@H]1C(=O)N[C@H](C(=O)NCC(=O)N[C@@H](CO)C(=O)N[C@@H](CC(N)=O)C(=O)N[C@H](C(=O)N[C@@H](Cc1ccc(O)cc1)C(N)=O)[C@@H](C)O)C(C)C)[C@@H](C)O
notes: also called compound 31
B4: N^ε1-[2-[2-[2-[[(4S)-4-carboxy-4-(19-carboxynonadecanoylamino)butanoyl]amino]ethoxy]ethoxy]acetyl]-[Arg17,Pro21,Pro27,Arg35]-h-amylin (peptide)
peptide: K([AEEA-γGlu-C20 diacid])CNTATCATQRLANFLRHSSPNFGAIPSSTNVGSRTY-NH2
modifications: disulfide 2-7; N-terminus assumed
SMILES: CC[C@H](C)[C@H](NC(=O)[C@H](C)NC(=O)CNC(=O)[C@H](Cc1ccccc1)NC(=O)[C@H](CC(N)=O)NC(=O)[C@@H]1CCCN1C(=O)[C@H](CO)NC(=O)[C@H](CO)NC(=O)[C@H](Cc1c[nH]cn1)NC(=O)[C@H](CCCNC(=N)N)NC(=O)[C@H](CC(C)C)NC(=O)[C@H](Cc1ccccc1)NC(=O)[C@H](CC(N)=O)NC(=O)[C@H](C)NC(=O)[C@H](CC(C)C)NC(=O)[C@H](CCCNC(=N)N)NC(=O)[C@H](CCC(N)=O)NC(=O)[C@@H](NC(=O)[C@H](C)NC(=O)[C@@H]1CSSC[C@H](NC(=O)[C@@H](N)CCCCNC(=O)COCCOCCNC(=O)CC[C@H](NC(=O)CCCCCCCCCCCCCCCCCCC(=O)O)C(=O)O)C(=O)N[C@@H](CC(N)=O)C(=O)N[C@@H]([C@@H](C)O)C(=O)N[C@@H](C)C(=O)N[C@@H]([C@@H](C)O)C(=O)N1)[C@@H](C)O)C(=O)N1CCC[C@H]1C(=O)N[C@@H](CO)C(=O)N[C@@H](CO)C(=O)N[C@H](C(=O)N[C@@H](CC(N)=O)C(=O)N[C@H](C(=O)NCC(=O)N[C@@H](CO)C(=O)N[C@@H](CCCNC(=N)N)C(=O)N[C@H](C(=O)N[C@@H](Cc1ccc(O)cc1)C(N)=O)[C@@H](C)O)C(C)C)[C@@H](C)O
notes: also called compound 38
B5: N^α1-[(4S)-4-carboxy-4-(19-carboxynonadecanoylamino)butanoyl]-[His14,Arg17,Pro21,Pro27,Glu35]-h-amylin (peptide)
peptide: {C20 diacid-γGlu}-KCNTATCATQRLAHFLRHSSPNFGAIPSSTNVGSETY-NH2
modifications: disulfide 2-7
SMILES: CC[C@H](C)[C@H](NC(=O)[C@H](C)NC(=O)CNC(=O)[C@H](Cc1ccccc1)NC(=O)[C@H](CC(N)=O)NC(=O)[C@@H]1CCCN1C(=O)[C@H](CO)NC(=O)[C@H](CO)NC(=O)[C@H](Cc1c[nH]cn1)NC(=O)[C@H](CCCNC(=N)N)NC(=O)[C@H](CC(C)C)NC(=O)[C@H](Cc1ccccc1)NC(=O)[C@H](Cc1c[nH]cn1)NC(=O)[C@H](C)NC(=O)[C@H](CC(C)C)NC(=O)[C@H](CCCNC(=N)N)NC(=O)[C@H](CCC(N)=O)NC(=O)[C@@H](NC(=O)[C@H](C)NC(=O)[C@@H]1CSSC[C@H](NC(=O)[C@H](CCCCN)NC(=O)CC[C@H](NC(=O)CCCCCCCCCCCCCCCCCCC(=O)O)C(=O)O)C(=O)N[C@@H](CC(N)=O)C(=O)N[C@@H]([C@@H](C)O)C(=O)N[C@@H](C)C(=O)N[C@@H]([C@@H](C)O)C(=O)N1)[C@@H](C)O)C(=O)N1CCC[C@H]1C(=O)N[C@@H](CO)C(=O)N[C@@H](CO)C(=O)N[C@H](C(=O)N[C@@H](CC(N)=O)C(=O)N[C@H](C(=O)NCC(=O)N[C@@H](CO)C(=O)N[C@@H](CCC(=O)O)C(=O)N[C@H](C(=O)N[C@@H](Cc1ccc(O)cc1)C(N)=O)[C@@H](C)O)C(C)C)[C@@H](C)O
notes: also called compound 30

Numbered stars: 1 amine (or outer) side, 2 acyl side, 3 side chain; on linkers, the order of the positions; unused ones are H or OH. Bridge positions count the residues as written; N and C are the ends. Side chains are listed from the residue outwards. Ends that are not written are not given here. * marks the point of attachment. C20 diacid = O=C(O)CCCCCCCCCCCCCCCCCCC(=O)*; γGlu = O=C(O)[C@H](CCC(=O)[*:2])N[*:1]; AEEA = NCCOCCOCC(=O)O

The target in the experiment is T1, human amylin receptor. The experiment can be described thus: SPA competition vs 125I-rat amylin, membranes of amylin 3(a) receptor BHK cells (Assay V). The procedure:
The binding assay was performed using scintillation proximity assay (SPA) beads (RPNQ0001) from PerkinElmer and cell membranes from the Amylin 3(a)/CRE-luc cells (as described in Assay (II)) were used. Membranes were prepared in the following way; the cells were rinsed with PBS and incubated with Versene for approximately 5 min before harvesting. The cells were flushed with PBS and the cell-suspension was centrifuged for 5 min at 1000 rpm. Cells were homogenized (ultrathurrax) in a buffer containing 20 mM Na-HEPES and 10 mM EDTA (pH 7.4) and centrifuged at 20.000 rpm for 15 min. The resulting pellet was resuspended, homogenized and centrifuged (20.000 rpm, 15 min) in a buffer containing 20 mM Na-HEPES and 0.1 mM EDTA (pH 7.4, buffer 2). The resulting pellet was resuspended in buffer 2 and protein concentration was measured (BCA protein Assay, Pierce). The homogenate was kept cold during the whole procedure. The membranes were kept at −80° C. until use. The assay was performed in a 384 well Optiplate (PerkinElmer) in a total volume of 40 ul. Membranes were mixed with SPA beads. Final concentration of membranes 35 ng/μL final and SPA beads was 0.05 mg/well. Test-compounds were dissolved in DMSO and further diluted in assay buffer (50 mM Hepes, pH 7.4, 1 mM CaCl2, 5 mM MgCl₂, 0.1% OA and 0.02% Tween20). […] The final mixture was incubated with shaking at 400 rpm for 120 min at 25° C. prior to centrifugation (1500 rpm, 10 min). Samples were analyzed on TopCounter™ (Packard). The IC₅₀ was calculated using (one site binding competition analysis) GraphPad Prism5 as a measure of receptor affinity.
B1 gave an IC50 of 894 pM.

For the molecule B2, the IC50 is 768 pM. For B3, the IC50 stood at 204 pM. Consider B4, for which the IC50 turned out to be 249 pM. Regarding B5, the half-maximal inhibitory concentration (IC50) amounted to 919 pM.
